Laboratory results as given in patent US20220064278A1 (Janssen / Centocor, published 2022).
Where a chain is given by its changes, count along the chain named. Values belong to the binder of their own block, whether it stands above or below them.

Key:
[1] = target: T1, recombinant human TNFα (human, UniProt P01375 77-233); test: cell-based or functional assay
[2] = target: T1, recombinant human TNFα; test: inhibition of 125I-TNFα binding to plate-coated p55-sf2 by hybridoma supernatant
[3] = target: T1, recombinant human TNFα; test: competition: mAb in hybridoma supernatant preincubated with 5 ng/ml 125I-TNFα, mixture added to plate-coated p55-sf2, cpm bound counted; blocked ligand p55-sf2

neutralizing TNFα bioactivity [1]: 4 fold (against TNV14)
fold better at blocking TNF binding than TNV118 and TNV14 [2]: ~4 fold
IC50 (read off the curve) [3]: ~4 ng/mL
B1: TNV148 (antibody, V domains shown)
VH: QVQLVESGGGVVQPGRSLRLSCAASGFIFSSYAMHWVRQAPGNGLEWVAFMSYDGSNKKYADSVKGRFTISRDNPKNTLYLQMNSLRAEDTAVYYCARDRGIAAGGNYYYYGMDVWGQGTTVTVSS
VL: EIVLTQSPATLSLSPGERATLSCRASQSVYSYLAWYQQKPGQAPRLLIYDASNRATGIPARFSGSGSGTDFTLTISSLEPEDFAVYYCQQRSNWPPFTFGPGTKVDIKR

neutralizing TNFα bioactivity [1]: 4 fold (against TNV14)
IC50 (read off the curve) [3]: ~4 ng/mL
B2: TNV196 (antibody, V domains shown)
VH: B1 VH with I28T, N43K, M51I, Y60S, I70V, P75S, Y80F, Y94F, A103G
VL: EIVLTQSPATLSLSPGERATLSCRASQSVYSYLAWYQQKPGQAPRLLIYDASNRATGIPARFSGSGSGTDFTLTISSLEPEDFAVYYCQQRSNWPPFTFGPGTKVDIK

IC50 (read off the curve) [3]: ~4 ng/mL
B3: TNV15 (antibody, V domains shown)
VH: B1 VH with I28T, N43K, M51I, S52L, P75S, T78A, I102V, A103S
VL: B2 VL with Y30S
